{"source": "patent US20230189844", "proteins": {"B1": {"name": "Protease derived from Nocardiopsis sp. NRRL 18262 (an acid-stable protease) (protein)", "chain": "ADIIGGLAYTMGGRCSVGFAATNAAGQPGFVTAGHCGRVGTQVTIGNGRGVFEQSVFPGNDAAFVRGTSNFTLTNLVSRYNTGGYATVAGHNQAPIGSSVCRSGSTTGWHCGTIQARGQSVSYPEGTVTNMTRTTVCAEPGDSGGSYISGTQAQGVTSGGSGNCRTGGTTFYQEVTPMVNSWGVRLRT"}}, "key": {"[1]": {"target": "T1, Soy Bowman-Birk Inhibitor, P01055", "T1 chain": "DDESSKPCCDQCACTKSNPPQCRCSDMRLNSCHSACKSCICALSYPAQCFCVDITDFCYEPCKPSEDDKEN"}, "[2]": {"target": "T2, Soy Kunitz Inhibitor (Trypsin Inhibitor from soybean), P01070", "T2 chain": "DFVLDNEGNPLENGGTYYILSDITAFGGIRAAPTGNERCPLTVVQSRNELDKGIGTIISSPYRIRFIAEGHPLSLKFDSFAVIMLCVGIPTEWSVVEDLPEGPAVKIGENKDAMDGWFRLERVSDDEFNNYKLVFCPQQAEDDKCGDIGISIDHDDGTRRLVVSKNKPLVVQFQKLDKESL"}, "[3]": {"target": "Soybean agglutinin (SBA), P05046", "sequence (P05046 33-285)": "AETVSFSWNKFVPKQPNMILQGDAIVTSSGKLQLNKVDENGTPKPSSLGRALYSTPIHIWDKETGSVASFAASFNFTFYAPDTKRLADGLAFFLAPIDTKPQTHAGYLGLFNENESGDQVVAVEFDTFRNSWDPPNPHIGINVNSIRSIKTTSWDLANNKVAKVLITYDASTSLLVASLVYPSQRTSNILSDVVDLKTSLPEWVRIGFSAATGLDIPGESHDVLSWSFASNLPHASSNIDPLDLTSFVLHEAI"}}}
{"protein": "B1", "values": [{"measurement": "% of anti-nutritional factor degraded (SDS-PAGE band disappearance, 2 hours, 37° C., pH 6.5)", "setting": "[1]", "value": 25, "unit": "%"}, {"measurement": "% of anti-nutritional factor degraded (SDS-PAGE band disappearance, 2 hours, 37° C., pH 6.5)", "setting": "[2]", "value": 100, "unit": "%"}, {"measurement": "% of anti-nutritional factor degraded (SDS-PAGE band disappearance, 2 hours, 37° C., pH 6.5)", "setting": "[3]", "value": 75, "unit": "%"}]}
